For two substances, % monomer results are on record in PMC3893232.

Like-named read-outs stand apart in the source and are kept apart here.

Data set [1] is described as follows: SEC.
Data set [2] is described as follows: SEC. This is another data set of the same source.

Regarding IgG1-Y407A, the % monomer in the data set “SEC [1]” was determined as 1%; in the data set “SEC [2]”, 5%.

Take “IgG1-Y407E (natural mixture of HL and (HL)2)”: the values for the % monomer in “SEC [1]” and in “SEC [2]” were 90% and 95%, respectively.
